Laboratory results published in US20160223554A1, “METHODS FOR DIAGNOSIS, PROGNOSIS AND METHODS OF TREATMENT” (priority 2011, published 2016).

Legend:
AML blasts = assay: SCNP phospho-flow signaling nodes in AML PBMC (Example 2, Study No. 1); type: cell-based, human; settings: for Mean Value of CRs: CR patients; for Mean Value of CRs / Mean Value of NRs: Study No. 1; for Mean Value of NRs: NR patients
Description: Frozen cells are thawed in a 37° C. water bath and gently resuspended in the vial and transferred to the 15 mL conical tube. The 15 mL tube is centrifuged at 930 RPM (200×g) for 8 minutes at room temperature. The supernatant is aspirated and the pellet is gently resuspended in 1 mL media A. The cell suspension is filtered through a 70 um cell strainer into a new 15 mL tube. The cell strainer is rinsed with 1 mL media A and another 12 ml of media A into the 15 mL tube. The cells are mixed into an even suspension. A 20 μL aliquot is immediately removed into a 96-well plate containing 180 μL PBS+4% FBS+CD45 Alexa 700+PI to determine cell count and viability post spin. After the determination, the 15 mL tubes are centrifuged at 930 RPM (200×g) for 8 minutes at room temperature. The supernatant is aspirated and the cell pellet is gently resuspended in 4 mL PBS+4 μL Amine Aqua and incubated for 15 min in a 37° C. incubator. 10 mL RPMI+1% FBS is added to the cell suspension and the tube is inverted to mix the cells. The 15 mL tubes are centrifuged at 930 RPM (200×g) for 8 minutes at room temperature. The cells are resuspended in Media A at the desired cell concentration (1.25×10^6/mL). For samples with low numbers of cells (<18.5×10^6), the cells are resuspended in up to 15 mL media. For samples with high numbers of cells (>18.5×10^6), the volume is raised to 10 mL with media A and the desired volume is transferred to a new 15 mL tube, and the cell concentration is adjusted to 1.25×10^6 cells/ml. 1.6 mL of the above cell suspension (concentration at 1.25×10^6 cells/ml) is transferred into wells of a multi-well plate. From this plate, 80 ul is dispensed into each well of a subsequent plate. The plates are covered with a lid (Nunc) and placed in a 37° C. incubator for 2 hours to rest.
A concentration for each stimulant that is five folds more (5×) than the final concentration is prepared using Media A as diluent. 5× stimuli are arrayed into wells of a standard 96 well v-bottom plate that correspond to the wells on the plate with cells to be stimulated.
Adding the stimulant: The cell plate(s) are taken out of the incubator and placed in a 37° C. water bath next to the pipette apparatus. The cell plate is taken from the water bath and gently swirled to resuspend any settled cells. With pipettor, the stimulant is dispensed into the cell plate and vortexed at “7” for 5 seconds. The deep well plate is put back into the water bath.
The plate is covered with foil sealer and incubated in a 37° C. water bath for 10 minutes. The plate is spun for 6 minutes at 2000 rpm at room temperature. The cells are aspirated using a 96 well plate aspirator (VP Scientific). The plate is vortexed to resuspend cell pellets in the residual volume. The pellet is ensured to be dispersed before the Methanol step (see cell permeabilization) or clumping will occur.
Cell Permeabilization: Permeability agent, for example methanol, is added slowly and while the plate is vortexing. To do this, the cell plate is placed on titer plate shaker and made sure it is secure. The plate is set to shake using the highest setting. A pipetter is used to add 0.6 mls of 100% methanol to the plate wells. The plate(s) are put on ice until this step has been completed for all plates. Plates are covered with a foil seal using the plate roller to achieve a tight fit. At this stage the plates can be stored at −80° C.
Cells are thawed if frozen. Cells are pelleted at 2000 rpm 5 minutes. Supernatant is aspirated with vacuum aspirator. Plate is vortexed on a “plate vortex” for 5-10 seconds. Cells are washed with 1 mL FACS buffer. Repeat the spin, aspirate and vortex steps as above. 50 μL of FACS/stain buffer with the desired, previously optimized, antibody cocktail is added to two rows of cells at a time and agitate the plate. The plate is covered and incubated in a shaker for 30 minutes at room temperature (RT). During this incubation, the compensation plate is prepared.

[1] = system: elderly pts with untreated AML; settings: cited from earlier work
[2] = Fold = log2(MFI modulated) - log2(MFI unmodulated), 9 CRs, Study No.1
[3] = Fold = log2(MFI modulated) - log2(MFI unmodulated), 25 NRs, Study No.1
[4] = Fold metric, Study No. 1, CRp patient included in NR group
[5] = Total Phospho metric, Study No. 1, CRp patient included in NR group
[6] = read-out p-CREB, metric TotalPhospho
[7] = read-out p-Erk, metric TotalPhospho
[8] = read-out p-Plcγ2, metric TotalPhospho
[9] = read-out p-Stat3, metric TotalPhospho
[10] = read-out p-Stat1, metric TotalPhospho

Molecule	p-Akt Fold, Mean Value of CRs (AML blasts; [2])	p-Akt Fold, Mean Value of NRs (AML blasts; [3])	Mean Value of CRs, p-Akt (AML blasts; [4])	Mean Value of CRs, p-Erk (AML blasts; [4])	Mean Value of NRs, p-Akt (AML blasts; [4])	Mean Value of NRs, p-Erk (AML blasts; [4])	Mean Value of CRs, p-CREB (AML blasts; [5])	Mean Value of CRs, p-Plcγ2 (AML blasts; [5])	Mean Value of NRs, p-CREB (AML blasts; [5])	Mean Value of NRs, p-Plcγ2 (AML blasts; [5])	Mean Value of CRs (AML blasts; read-out p-Akt, metric Fold)	Mean Value of NRs (AML blasts; read-out p-Akt, metric Fold)	Mean Value of CRs (AML blasts; [6])	Mean Value of NRs (AML blasts; [6])	Mean Value of CRs (AML blasts; [8])	Mean Value of NRs (AML blasts; [8])	Mean Value of CRs, p-Stat3 (AML blasts; [5])	Mean Value of NRs, p-Stat3 (AML blasts; [5])	Mean Value of CRs (AML blasts; [9])	Mean Value of NRs (AML blasts; [9])	other results
SCF: stem cell factor, ligand of c-Kit	0.12	0.57	0.09	−0.06	0.56	0.11	1.32	1.80	1.92	2.79	0.12	0.57	1.38	1.92	1.87	2.81	–	–	–	–	Mean Value of CRs (AML blasts; read-out p-Erk, metric Fold): −0.05; Mean Value of NRs (AML blasts; read-out p-Erk, metric Fold): 0.11; Mean Value of CRs (AML blasts; [7]): 1.87; Mean Value of NRs (AML blasts; [7]): 2.28
FLT3L: fms-like tyrosine kinase receptor-3 ligand (protein, UniProt P49771 27-235, looked up) Fms-related tyrosine kinase 3 …: TQDCSFQHSPISSDFAVKIRELSDYLLQDYPVTVASNLQDEELCGGLWRLVLAQRWMERLKTVAGSKMQGLLERVNTEIHFVTKCAFQPPPSCLRFVQTNISRLLQETSEQLVALKPWITRQNFSRCLELQCQPDSSTLPPPWSPRPLEATAPTAPQPPLLLLLLLPVGLLLLAAAWCLHWQRTRRRTPRPGEQVPPVPSPQDLLLVEH	0.18	0.64	0.10	0.08	0.65	0.33	1.39	1.81	2.13	2.78	0.18	0.64	1.50	2.12	1.88	2.80	–	–	–	–	p-S6 Fold, Mean Value of CRs (AML blasts; [2]): 0.28; p-S6 Fold, Mean Value of NRs (AML blasts; [3]): 0.81; Mean Value of CRs, p-CREB (AML blasts; [4]): 0.07; Mean Value of CRs, p-Plcγ2 (AML blasts; [4]): −0.14; Mean Value of CRs, p-S6 (AML blasts; [4]): 0.14; Mean Value of NRs, p-CREB (AML blasts; [4]): 0.36; Mean Value of NRs, p-Plcγ2 (AML blasts; [4]): −0.08; Mean Value of NRs, p-S6 (AML blasts; [4]): 0.83; Mean Value of CRs (AML blasts; read-out p-S6, metric Fold): 0.28; Mean Value of NRs (AML blasts; read-out p-S6, metric Fold): 0.81
G-CSF: granulocyte colony-stimulating factor (protein, UniProt P09919 31-207, looked up) Granulocyte …: TPLGPASSLPQSFLLKCLEQVRKIQGDGAALQEKLVSECATYKLCHPEELVLLGHSLGIPWAPLSSCPSQALQLAGCLSQLHSGLFLYQGLLQALEGISPELGPTLDTLQLDVADFATTIWQQMEELGMAPALQPTQGAMPAFASAFQRRAGGVLVASHLQSFLEVSYRVLRHLAQP	–	–	–	–	–	–	–	–	–	–	–	–	–	–	–	–	1.40	2.74	1.66	2.70	p-Stat5 Fold, Mean Value of CRs (AML blasts; [2]): 0.47; p-Stat5 Fold, Mean Value of NRs (AML blasts; [3]): 1.13; Mean Value of CRs, p-Stat3 (AML blasts; [4]): 0.60; Mean Value of CRs, p-Stat5 (AML blasts; [4]): 0.33; Mean Value of NRs, p-Stat3 (AML blasts; [4]): 1.52; Mean Value of NRs, p-Stat5 (AML blasts; [4]): 1.15; Mean Value of CRs (AML blasts; read-out p-Stat5, metric Fold): 0.47; Mean Value of NRs (AML blasts; read-out p-Stat5, metric Fold): 1.13; Med RFS ([1]; SWOG-9031, by arm (NS)): 9 mo; G-CSF: 8; CR Rates ([1]; SWOG-9031, by arm, added to Ara-C/DNR induction, p = 0.89): G-CSF: 41%; Med. OS ([1]; SWOG-9031, by arm, p = .71): G-CSF: 6 mos.
IL-27: interleukin-27, cytokine modulator (protein, UniProt Q8NEV9 29-243; Q14213 21-229, looked up) Interleukin-27 subunit alpha: FPRPPGRPQLSLQELRREFTVSLHLARKLLSEVRGQAHRFAESHLPGVNLYLLPLGEQLPDVSLTFQAWRRLSDPERLCFISTTLQPFHALLGGLGTQGRWTNMERMQLWAMRLDLRDLQRHLRFQVLAAGFNLPEEEEEEEEEEEEERKGLLPGALGSALQGPAQVSWPQLLSTYRLLHSLELVLSRAVRELLLLSKAGHSVWPLGFPTLSPQP Interleukin-27 subunit beta: RKGPPAALTLPRVQCRASRYPIAVDCSWTLPPAPNSTSPVSFIATYRLGMAARGHSWPCLQQTPTSTSCTITDVQLFSMAPYVLNVTAVHPWGSSSSFVPFITEHIIKPDPPEGVRLSPLAERQLQVQWEPPGSWPFPEIFSLKYWIRYKRQGAARFHRVGPIEATSFILRAVRPRARYYVQVAAQDLTDYGELSDWSLPATATMSLGK	–	–	–	–	–	–	1.25	–	2.36	–	–	–	1.40	2.35	–	–	1.01	1.85	1.07	1.86	Mean Value of CRs, p-Stat1 (AML blasts; [5]): 0.39; Mean Value of NRs, p-Stat1 (AML blasts; [5]): 0.81; Mean Value of CRs (AML blasts; [10]): 0.41; Mean Value of NRs (AML blasts; [10]): 0.82
